Laboratory results published in the supplement of paper PMC10724198.

Experiments:
Saccharomyces cerevisiae [1] = assay: protein stability index of tFT-peptide fusion in wild type (PSI (0-1 scale)); higher = more stable (slower turnover); settings: genetic background: wild type
Saccharomyces cerevisiae [2] = assay: protein stability index of tFT-peptide fusion in deletion strain of DOA10 (PSI (0-1 scale)); higher = more stable (slower turnover)
Procedure: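 MPS profiling in S. cerevisiae of two library types built from selected 12-aa C-degron peptides (IN1, IN2, LN1, LN3, VN2, R1-R5, W1-W3, Atg1 and Rpa12 C-termini): saturation mutagenesis libraries and C-terminal +1 capping libraries (13 aa). Each peptide is fused to the C-terminus of a sfGFP-mCherry timer, after a GGGS linker. Cells are FACS-sorted into 8 mCherry/sfGFP bins and sequenced. PSI runs from 0 (unstable) to 1 (stable), measured once in wild type and in the das1Δ or doa10Δ background.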
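For protein stability index of tFT-peptide fusion in deletion strain of DOA10 in this document: PSI per variant is the weighted mean of its sequencing read distribution over the sorted stability bins, counting only variants with over 10 reads summed across bins.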
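For protein stability index of tFT-peptide fusion in wild type in this document: PSI derived as read-weighted mean over the 8 sorting bins, only variants exceeding 10 total reads kept, mCherry placed adjacent to the peptide and sfGFP distal.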

| Sequence | protein stability index (Saccharomyces cerevisiae [1]) | protein stability index (Saccharomyces cerevisiae [2]) |
| --- | --- | --- |
| RVTRLDWIYFRI | 0.164 | 0.495 |
| RVTRLGAIYFRI | 0.317 | 0.634 |
| RVTRLQAIYFRI | 0.202 | 0.402 |
| RVTRVDAIYFRI | 0.442 | 0.68 |
| RYLRVLLPLYFR | 0.335 | 0.659 |
| SITLPMCPLLLR | 0.248 | 0.65 |
| SSLRVLLPLYFR | 0.252 | 0.679 |
| VLVSLPILLFFR | 0.0972 | 0.56 |
| VVTRLDAIYFRI | 0.302 | 0.671 |
| YLVSLPILLFFR | 0.0822 | 0.538 |
